According to the supplement of paper PMC5998384:

Experiments:
[1] = tested on: HeLa Kyoto; assay: solubility change mitosis vs G1/S (difference of NP-40 vs SDS log2 ratios) (log2 ratio difference); higher = more soluble in mitosis
[2] = tested on: HeLa Kyoto; assay: solubility in G1/S (NP-40 vs SDS abundance) (log2 ratio); higher = more soluble; settings: cell cycle stage: G1/S
[3] = tested on: HeLa Kyoto; assay: melting temperature (median over replicates), in situ; higher = more thermally stable
[4] = tested on: HeLa Kyoto; assay: thermal stability score vs G1/S (z-score of summed log2 fold changes over temperatures); higher = more thermally stable than in G1/S
[5] = cell cycle stage: early G1 (4.5 h after nocodazole release)
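Wherever melting temperature (median over replicates), in situ is given: HeLa Kyoto cells synchronized by double thymidine or nocodazole block, proteins quantified by TMT10plex mass spectrometry, three independent biological replicates.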
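Wherever solubility change mitosis vs G1/S (difference of NP-40 vs SDS log2 ratios) is given: synchronized HeLa Kyoto cells (double thymidine block for G1/S, nocodazole release for mitosis), protein amounts in NP-40 versus SDS lysates quantified by mass spectrometry, three biological replicates.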
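Wherever solubility in G1/S (NP-40 vs SDS abundance) is given: HeLa Kyoto cells arrested at G1/S by double thymidine block, proteins quantified by TMT10plex mass spectrometry in mild NP-40 versus SDS extracts, three biological replicates.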
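Wherever thermal stability score vs G1/S (z-score of summed log2 fold changes over temperatures) is given: synchronized HeLa Kyoto cells, proteins quantified by TMT10plex mass spectrometry, three biological replicates, mitosis taken 0.5 h after nocodazole release, G1/S directly after double thymidine block.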

| Substance | solubility change mitosis (log2) [1] | solubility in G1/S (log2) [2] | melting temperature ([3]; cell cycle stage: mitosis) | thermal stability score [4, 5] | thermal stability score ([4]; cell cycle stage: mitosis) | melting temperature ([3]; cell cycle stage: G1/S) |
| --- | --- | --- | --- | --- | --- | --- |
| MEGESTSAVLSGFVLGALAFQHLNTDSDTEGFLLGEVKGEAKNSITDSQMDDVEVVYTIDIQKYIPCYQLFSFYNSSGEVNEQALKKILSNVKKNVVGWYKFRRHSDQIMTFRERLLHKNLQEHFSNQDLVFLLLTPSIITESCSTHRLEHSLYKPQKGLFHRVPLVVANLGMSEQLGYKTVSGSCMSTGFSRAVQTHSSKFFEEDGSLKEVHKINEMYASLQEELKSICKKVEDSEQAVDKLVKDVNRLKREIEKRRGAQIQAAREKNIQKDPQENIFLCQALRTFFPNSEFLHSCVMSLKNRHVSKSSCNYNHHLDVVDNLTLMVEHTDIPEASPASTPQIIKHKALDLDDRWQFKRSRLLDTQDKRSKADTGSSNQDKASKMSSPETDEEIEKMKGFGEYSRSPTF [FAM175A] | -0.057 | 0.0226 | 57.3 °C | -2.44 | -2.5 |  |
| MADSSGQQGKGRRVQPQWSPPAGTQPCRLHLYNSLTRNKEVFIPQDGKKVTWYCCGPTVYDASHMGHARSYISFDILRRVLKDYFKFDVFYCMNITDIDDKIIKRARQNHLFEQYREKRPEAAQLLEDVQAALKPFSVKLNETTDPDKKQMLERIQHAVQLATEPLEKAVQSRLTGEEVNSCVEVLLEEAKDLLSDWLDSTLGCDVTDNSIFSKLPKFWEGDFHRDMEALNVLPPDVLTRVSEYVPEIVNFVQKIVDNGYGYVSNGSVYFDTAKFASSEKHSYGKLVPEAVGDQKALQEGEGDLSISADRLSEKRSPNDFALWKASKPGEPSWPCPWGKGRPGWHIECSAMAGTLLGASMDIHGGGFDLRFPHHDNELAQSEAYFENDCWVRYFLHTGHLTIAGCKMSKSLKNFITIKDALKKHSARQLRLAFLMHSWKDTLDYSSNTMESALQYEKFLNEFFLNVKDILRAPVDITGQFEKWGEEEAELNKNFYDKKTAIHKALCDNVDTRTVMEEMRALVSQCNLYMAARKAVRKRPNQALLENIALYLTHMLKIFGAVEEDSSLGFPVGGPGTSLSLEATVMPYLQVLSEFREGVRKIAREQKVPEILQLSDALRDNILPELGVRFEDHEGLPTVVKLVDRNTLLKEREEKRRVEEEKRKKKEEAARRKQEQEAAKLAKMKIPPSEMFLSETDKYSKFDENGLPTHDMEGKELSKGQAKKLKKLFEAQEKLYKEYLQMAQNGSFQ [CARS] | -0.103 | 0.0728 | 52.6 °C | 0.401 | -0.0333 | 52.9 °C |
| MPPPRTREGRDRRDHHRAPSEEEALEKWDWNCPETRRLLEDAFFREEDYIRQGSEECQKFWTFFERLQRFQNLKTSRKEEKDPGQPKHSIPALADLPRTYDPRYRINLSVLGPATRGSQGLGRHLPAERVAEFRRALLHYLDFGQKQAFGRLAKLQRERAALPIAQYGNRILQTLKEHQVVVVAGDTGCGKSTQVPQYLLAAGFSHVACTQPRRIACISLAKRVGFESLSQYGSQVGYQIRFESTRSAATKIVFLTVGLLLRQIQREPSLPQYEVLIVDEVHERHLHNDFLLGVLQRLLPTRPDLKVILMSATINISLFSSYFSNAPVVQVPGRLFPITVVYQPQEAEPTTSKSEKLDPRPFLRVLESIDHKYPPEERGDLLVFLSGMAEISAVLEAAQTYASHTQRWVVLPLHSALSVADQDKVFDVAPPGVRKCILSTNIAETSVTIDGIRFVVDSGKVKEMSYDPQAKLQRLQEFWISQASAEQRKGRAGRTGPGVCFRLYAESDYDAFAPYPVPEIRRVALDSLVLQMKSMSVGDPRTFPFIEPPPPASLETAILYLRDQGALDSSEALTPIGSLLAQLPVDVVIGKMLILGSMFSLVEPVLTIAAALSVQSPFTRSAQSSPECAAARRPLESDQGDPFTLFNVFNAWVQVKSERSRNSRKWCRRRGIEEHRLYEMANLRRQFKELLEDHGLLAGAQAAQVGDSYSRLQQRRERRALHQLKRQHEEGAGRRRKVLRLQEEQDGGSSDEDRAGPAPPGASDGVDIQDVKFKLRHDLAQLQAAASSAQDLSREQLALLKLVLGRGLYPQLAVPDAFNSSRKDSDQIFHTQAKQGAVLHPTCVFAGSPEVLHAQELEASNCDGSRDDKDKMSSKHQLLSFVSLLETNKPYLVNCVRIPALQSLLLFSRSLDTNGDCSRLVADGWLELQLADSESAIRLLAASLRLRARWESALDRQLAHQAQQQLEEEEEDTPVSPKEVATLSKELLQFTASKIPYSLRRLTGLEVQNMYVGPQTIPATPHLPGLFGSSTLSPHPTKGGYAVTDFLTYNCLTNDTDLYSDCLRTFWTCPHCGLHAPLTPLERIAHENTCPQAPQDGPPGAEEAALETLQKTSVLQRPYHCEACGKDFLFTPTEVLRHRKQHV [DHX34] | -0.0525 | -0.242 | 49.8 °C | 0.188 | 0.311 | 50.1 °C |
| MPRPGSAQRWAAVAGRWGCRLLALLLLVPGPGGASEITFELPDNAKQCFYEDIAQGTKCTLEFQVITGGHYDVDCRLEDPDGKVLYKEMKKQYDSFTFTASKNGTYKFCFSNEFSTFTHKTVYFDFQVGEDPPLFPSENRVSALTQMESACVSIHEALKSVIDYQTHFRLREAQGRSRAEDLNTRVAYWSVGEALILLVVSIGQVFLLKSFFSDKRTTTTRVGS [TMED7] | -0.174 | -0.0739 | 56.4 °C | 2.43 | 0.528 | 57.2 °C |
| MKPAAREARLPPRSPGLRWALPLLLLLLRLGQILCAGGTPSPIPDPSVATVATGENGITQISSTAESFHKQNGTGTPQVETNTSEDGESSGANDSLRTPEQGSNGTDGASQKTPSSTGPSPVFDIKAVSISPTNVILTWKSNDTAASEYKYVVKHKMENEKTITVVHQPWCNITGLRPATSYVFSITPGIGNETWGDPRVIKVITEPIPVSDLRVALTGVRKAALSWSNGNGTASCRVLLESIGSHEELTQDSRLQVNISGLKPGVQYNINPYLLQSNKTKGDPLGTEGGLDASNTERSRAGSPTAPVHDESLVGPVDPSSGQQSRDTEVLLVGLEPGTRYNATVYSQAANGTEGQPQAIEFRTNAIQVFDVTAVNISATSLTLIWKVSDNESSSNYTYKIHVAGETDSSNLNVSEPRAVIPGLRSSTFYNITVCPVLGDIEGTPGFLQVHTPPVPVSDFRVTVVSTTEIGLAWSSHDAESFQMHITQEGAGNSRVEITTNQSIIIGGLFPGTKYCFEIVPKGPNGTEGASRTVCNRTVPSAVFDIHVVYVTTTEMWLDWKSPDGASEYVYHLVIESKHGSNHTSTYDKAITLQGLIPGTLYNITISPEVDHVWGDPNSTAQYTRPSNVSNIDVSTNTTAATLSWQNFDDASPTYSYCLLIEKAGNSSNATQVVTDIGITDATVTELIPGSSYTVEIFAQVGDGIKSLEPGRKSFCTDPASMASFDCEVVPKEPALVLKWTCPPGANAGFELEVSSGAWNNATHLESCSSENGTEYRTEVTYLNFSTSYNISITTVSCGKMAAPTRNTCTTGITDPPPPDGSPNITSVSHNSVKVKFSGFEASHGPIKAYAVILTTGEAGHPSADVLKYTYEDFKKGASDTYVTYLIRTEEKGRSQSLSEVLKYEIDVGNESTTLGYYNGKLEPLGSYRACVAGFTNITFHPQNKGLIDGAESYVSFSRYSDAVSLPQDPGVICGAVFGCIFGALVIVTVGGFIFWRKKRKDAKNNEVSFSQIKPKKSKLIRVENFEAYFKKQQADSNCGFAEEYEDLKLVGISQPKYAAELAENRGKNRYNNVLPYDISRVKLSVQTHSTDDYINANYMPGYHSKKDFIATQGPLPNTLKDFWRMVWEKNVYAIIMLTKCVEQGRTKCEEYWPSKQAQDYGDITVAMTSEIVLPEWTIRDFTVKNIQTSESHPLRQFHFTSWPDHGVPDTTDLLINFRYLVRDYMKQSPPESPILVHCSAGVGRTGTFIAIDRLIYQIENENTVDVYGIVYDLRMHRPLMVQTEDQYVFLNQCVLDIVRSQKDSKVDLIYQNTTAMTIYENLAPVTTFGKTNGYIA [PTPRJ] | 0.155 | -0.204 | 50 °C | 3.12 | -2.28 | 50.6 °C |
| PKM | -0.106 | 0.116 | 57.4 °C | -2.6 | -2.54 | 57.8 °C |
| MDLENKVKKMGLGHEQGFGAPCLKCKEKCEGFELHFWRKICRNCKCGQEEHDVLLSNEEDRKVGKLFEDTKYTTLIAKLKSDGIPMYKRNVMILTNPVAAKKNVSINTVTYEWAPPVQNQALARQYMQMLPKEKQPVAGSEGAQYRKKQLAKQLPAHDQDPSKCHELSPREVKEMEQFVKKYKSEALGVGDVKLPCEMDAQGPKQMNIPGGDRSTPAAVGAMEDKSAEHKRTQYSCYCCKLSMKEGDPAIYAERAGYDKLWHPACFVCSTCHELLVDMIYFWKNEKLYCGRHYCDSEKPRCAGCDELIFSNEYTQAENQNWHLKHFCCFDCDSILAGEIYVMVNDKPVCKPCYVKNHAVVCQGCHNAIDPEVQRVTYNNFSWHASTECFLCSCCSKCLIGQKFMPVEGMVFCSVECKKRMS [TES] | -0.111 | 0.0767 | 52.3 °C | -0.92 | -1.54 | 52 °C |
